T1: human Protein S (human, UniProt P07225 42-676)
T1 construct: also called ProS; ProS1
T1 sequence: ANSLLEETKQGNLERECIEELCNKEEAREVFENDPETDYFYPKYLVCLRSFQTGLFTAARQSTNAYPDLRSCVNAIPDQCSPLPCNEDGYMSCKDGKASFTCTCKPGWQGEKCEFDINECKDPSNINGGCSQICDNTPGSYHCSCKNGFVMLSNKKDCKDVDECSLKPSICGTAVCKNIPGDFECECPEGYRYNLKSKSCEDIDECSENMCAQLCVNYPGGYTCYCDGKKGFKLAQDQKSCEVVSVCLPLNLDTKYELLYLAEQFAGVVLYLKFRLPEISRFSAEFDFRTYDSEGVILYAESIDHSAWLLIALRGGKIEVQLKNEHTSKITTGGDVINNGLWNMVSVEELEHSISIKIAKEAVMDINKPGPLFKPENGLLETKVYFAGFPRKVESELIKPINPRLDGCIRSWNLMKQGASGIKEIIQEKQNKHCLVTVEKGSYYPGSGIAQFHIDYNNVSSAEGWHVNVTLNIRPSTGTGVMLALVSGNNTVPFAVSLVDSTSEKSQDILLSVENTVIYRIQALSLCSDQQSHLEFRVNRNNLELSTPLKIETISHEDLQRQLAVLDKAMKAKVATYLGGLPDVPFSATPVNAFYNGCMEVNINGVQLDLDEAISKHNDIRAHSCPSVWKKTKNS

T2: Protein S-C4BP complex (human, UniProt P04003 49-597; P20851 18-252)
T2 construct: Bought C4BP preparation that contains Protein S precomplexed to human C4BP; also called ProS-C4BP Complex; C4BP-Protein S complex
T2 sequence 1: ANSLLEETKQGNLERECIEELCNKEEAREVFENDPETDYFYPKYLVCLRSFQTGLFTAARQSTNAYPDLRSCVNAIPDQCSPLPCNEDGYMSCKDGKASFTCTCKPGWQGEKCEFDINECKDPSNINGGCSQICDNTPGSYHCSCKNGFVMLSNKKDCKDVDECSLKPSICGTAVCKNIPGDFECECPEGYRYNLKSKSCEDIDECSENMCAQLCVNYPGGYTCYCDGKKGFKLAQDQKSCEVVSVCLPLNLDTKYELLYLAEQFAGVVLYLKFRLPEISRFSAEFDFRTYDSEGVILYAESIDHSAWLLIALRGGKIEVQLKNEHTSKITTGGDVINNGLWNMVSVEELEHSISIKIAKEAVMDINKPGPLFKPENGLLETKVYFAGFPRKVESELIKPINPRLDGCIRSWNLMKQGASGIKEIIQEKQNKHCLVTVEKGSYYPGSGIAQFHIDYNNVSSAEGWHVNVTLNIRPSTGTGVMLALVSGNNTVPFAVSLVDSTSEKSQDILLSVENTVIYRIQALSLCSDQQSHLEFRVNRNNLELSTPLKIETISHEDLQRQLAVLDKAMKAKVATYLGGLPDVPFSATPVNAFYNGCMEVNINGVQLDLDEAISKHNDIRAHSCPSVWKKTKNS
T2 sequence 2: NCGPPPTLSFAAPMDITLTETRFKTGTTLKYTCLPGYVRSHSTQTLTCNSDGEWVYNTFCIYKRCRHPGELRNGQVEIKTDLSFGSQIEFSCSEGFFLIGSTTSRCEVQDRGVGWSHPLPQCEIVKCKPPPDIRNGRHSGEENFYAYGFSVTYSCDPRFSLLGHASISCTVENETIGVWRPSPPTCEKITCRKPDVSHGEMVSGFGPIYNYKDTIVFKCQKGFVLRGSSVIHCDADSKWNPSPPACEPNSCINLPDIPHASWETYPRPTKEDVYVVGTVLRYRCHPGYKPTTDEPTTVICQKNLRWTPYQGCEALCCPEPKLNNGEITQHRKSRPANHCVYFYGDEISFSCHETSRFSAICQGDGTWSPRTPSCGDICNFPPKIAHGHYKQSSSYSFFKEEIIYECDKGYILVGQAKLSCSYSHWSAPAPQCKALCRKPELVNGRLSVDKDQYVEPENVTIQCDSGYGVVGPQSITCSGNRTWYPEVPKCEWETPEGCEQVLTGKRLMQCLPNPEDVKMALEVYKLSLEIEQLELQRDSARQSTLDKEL
T2 sequence 3: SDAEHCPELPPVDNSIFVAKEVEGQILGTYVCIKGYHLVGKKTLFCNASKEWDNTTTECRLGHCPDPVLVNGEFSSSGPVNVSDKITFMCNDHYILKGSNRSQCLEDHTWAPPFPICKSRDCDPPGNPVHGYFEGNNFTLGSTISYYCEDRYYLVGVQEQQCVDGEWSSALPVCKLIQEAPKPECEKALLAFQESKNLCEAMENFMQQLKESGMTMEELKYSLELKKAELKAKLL

T3: recombinant heavy chain Protein S (amino acids 42-296) (human, UniProt P07225 42-296)
T3 construct: Expressed and purified from HEK293 cells; No tags are stated; also called heavy chain of Protein S; Protein S heavy chain
T3 sequence: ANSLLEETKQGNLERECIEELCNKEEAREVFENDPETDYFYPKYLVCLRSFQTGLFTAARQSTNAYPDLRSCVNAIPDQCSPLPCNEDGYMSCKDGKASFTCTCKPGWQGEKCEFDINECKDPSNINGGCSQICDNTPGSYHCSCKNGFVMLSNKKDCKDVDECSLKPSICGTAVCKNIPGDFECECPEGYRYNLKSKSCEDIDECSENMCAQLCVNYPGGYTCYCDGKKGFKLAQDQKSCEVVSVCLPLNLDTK


Key:
human Protein S [1] = biological target: T1, human Protein S; assay: BLI, Octet; antibody on anti-human Fc capture probes, Protein S 7.81-500 nM, 4 mM calcium chloride
Description: (§1) Binding affinities of the Protein S antibodies provided herein were also further characterized using the Octet System (Sartorius). The binding of each antibody to both human and cynomolgus monkey (“cyno”) Protein S was determined. The human Fc antibodies were immobilized onto anti-human Fc capture probes by placing the probes into 10 µg/ml antibody solution in 10 mg/ml bovine serum albumin, 20 mM Tris pH 7.0, 150 mM NaCl, and 4 mM calcium chloride. […] Next, the probes were placed into buffer and the dissociation rates were measured.

[2] = biological target: T4, cynomolgus monkey Protein S (cynomolgus monkey); assay: as above
T4 construct: also called cyno Protein S
Description: as §1

Protein S-C4BP complex = biological target: T2, Protein S-C4BP complex; assay: Octet BLI, antibody captured on anti-human Fc probes; a dash indicates that the binding did not occur
Description: The Octet assay was used to determine the capability of the Protein S antibodies provided herein to bind to Protein S either alone, or when complexed to C4BP.
Using the Octet System (Sartorius), the binding of each antibody to both Protein S and Protein S in complex with C4BP was determined. It had previously been determined that the C4BP preparation from Complement Technologies contains Protein S precomplexed to human C4BP. […] Then the bound antibodies were placed into solutions containing either 75 µg/ml Protein S or 100 µg/ml C4BP (C4BP-Protein S complex).

human Protein S [3] = biological target: T1, human Protein S; assay: ELISA, plate coated with human Protein S, 1 µg/ml antibody, 1 mM EDTA
Description: (§2) Calcium dependence of binding was determined using an ELISA based method. Briefly, high binding ELISA plates were coated with human Protein S. Then, buffer containing 1 µg/ml of antibody was applied to the well with either buffer containing 1 mM EDTA or 1 mM calcium chloride. If the level of binding of Protein S was reduced ([…] of the absorbance observed in the presence of calcium) when EDTA was added, it was concluded that the binding was calcium-dependent.

human Protein S [4] = biological target: T1, human Protein S; assay: ELISA, plate coated with human Protein S, 1 µg/ml antibody, 1 mM calcium chloride
Description: as §2

[5] = biological target: T3, recombinant heavy chain Protein S …; assay: ELISA on plate-coated recombinant Protein S heavy chain (aa 42-296), 1 mM calcium chloride
Description: (§3) Binding to the heavy chain of Protein S was determined using an ELISA based method. Briefly, high binding ELISA plates were coated with recombinant heavy chain Protein S expressed and purified from HEK293 cells. The “heavy chain” of Protein S represents a fragment of Protein S spanning amino acids 42-296. The coated plate was blocked with 1% casein solution. Then, buffer containing 1 µg/ml of antibody to be tested was applied to the well with buffer containing 1 mM calcium chloride.

[6] = biological target: T3, recombinant heavy chain Protein S …; assay: ELISA, plate coated with recombinant Protein S heavy chain (aa 42-296), 1 µg/ml antibody, 1 mM calcium chloride
Description: as §3

human Protein S [7] = biological target: T1, human Protein S; assay: SPR, Biacore X100; antibody captured on anti-human IgG (Fc), purified Protein S 2-128 nM as analyte, HBS-EP + 5 mM CaCl2, 1:1 model
Description: Binding interaction analysis was obtained by Surface Plasmon Resonance in a Biacore X100 instrument. The human anti-IgG (Fc) antibody was immobilized to the carboxymethylated dextran membrane on the sensor chip surface (CM5) via the free amine method for a contact time of 420 seconds. Human anti-IgG antibody at 25 µg/mL in 0.15 M NaCl was immobilized to 9,785 RU in 10 mM sodium acetate pH 5.0. Each tested monoclonal antibody was captured at a fixed concentration (0.25 µg/mL) with immobilized human anti-IgG antibody.
The following experimental conditions were used: purified Protein S was injected at concentrations: 2-128 nM, 1:2-fold dilution. Dilution and running buffer were as follows: Hbs-EP + 5 mM CaCl₂. Regeneration was obtained by 3 M MgCl₂. Binding constants (ka, kd, and KD) were determined using the Biacore X100 evaluation software, assuming a 1:1 interaction of Protein S and the tested monoclonal antibody under investigation.

Binder	Kd (human Protein S [1])	koff (human Protein S [1])	kon (human Protein S [1])	Kd [2]	koff [2]	kon [2]	Binding to Protein S in EDTA (OD) (human Protein S [3])	Binding to Protein S in CaCl2 (OD) (human Protein S [4])	binding result [5]	Binding to heavy chain (OD) [6]	Kd (human Protein S [7])	koff (human Protein S [7])	kon (human Protein S [7])	binding result (Protein S-C4BP complex)
Antibody 5 (antibody, V domains shown, also called Protein S Antibody with Human Fc; Combination 8) VH: QVQLVQSGAEVKKPGASVKVSCKASGYTFTSYDINWVRQATGQGLEWMGWVNPNSDNIGYAQKFQGRVTMTRNTSISTAYMELSSLRSEDSAVYYCVRGAAAAWDAFAIWGQGTMVTVSS VL: EIVMTQSPATLSVSPGERATLSCRASQSVGSNLAWYQQKPGQAPRLLIYGASTRATGGPARFSGSGSGTEFTLTISSLQSEDFAVYYCQQYNNWPLTFGGGTKVEIK	7.8 nM	0.000493 s⁻¹	63300 M⁻¹ s⁻¹	4.19 nM	0.000283 s⁻¹	67500 M⁻¹ s⁻¹					28 nM	0.00227 s⁻¹	81200 M⁻¹ s⁻¹	
Antibody 10 (antibody, human IgG4, V domains shown, also called Protein S Antibody with Human Fc; Combination 9) VH: EVQLLESGGGLVQPGGSLRLSCAASRFSFSSYAMSWVRQAPGKGLEWVSAISDSGSNTYYADSVKGLFTISRDNSKNTLYLQMNSLRAEDTAVYYCAKNYESGGYYTFFDYWGQGTLVTVST VL: EIVMTQSPATLSVFPGERATLSCRASQSVRSNLAWHQQKLGQAPRLLLYGASTRATGIPARFSGSGSGTEFTLAISSLQSEDFAVYYCQQYNSWPFTFGGGTKVGIK	16.8 nM	0.00213 s⁻¹	127000 M⁻¹ s⁻¹	12.3 nM	0.00132 s⁻¹	107000 M⁻¹ s⁻¹					31 nM	0.00514 s⁻¹	167000 M⁻¹ s⁻¹	no binding (tested: 100 µg/ml C4BP (C4BP-Protein S complex))
Antibody 17 (antibody, V domains shown, Human variable region with a rat Fc domain; also called Protein S Antibody with Rat Fc; parental rat antibody of Antibody 5) VH: QVQLVQSGAEVKKPGASVKVSCKASGYTFTSYDINWVRQATGQGLEWMGWVNPNSDNIGYAQKFQGRVTMTRNTSISTAYMELSSLRSEDSAVYYCVRGAAAAWDAFAIWGQGTMVTVSS VL: EIVMTQSPATLSVSPGERATLSCRASQSVGSNLAWYQQKPGQAPRLLIYGASTRATGGPARFSGSGSGTEFTLTISSLQSEDFAVYYCQQYNNWPLTFGGGTKVEIK							0.39 OD	0.54 OD	no binding	0.07 OD				

Now from value to binder, other results behind:

Kd (human Protein S [1])	koff (human Protein S [1])	kon (human Protein S [1])	Kd [2]	koff [2]	kon [2]	Binding to Protein S in EDTA (OD) (human Protein S [3])	Binding to Protein S in CaCl2 (OD) (human Protein S [4])	binding result [5]	Binding to heavy chain (OD) [6]	Kd (human Protein S [7])	koff (human Protein S [7])	kon (human Protein S [7])	Binder	binding result (Protein S-C4BP complex)
0.466 nM	4.58e-05 s⁻¹	98500 M⁻¹ s⁻¹	0.349 nM	3.15e-05 s⁻¹	90300 M⁻¹ s⁻¹								Antibody 26 (antibody, human IgG4, V domains shown, also called Protein S Antibody with Human Fc; Combination 16) VH: EVQVVESGGGLVQPGGSLRLSCAASGFTLNSFWMSWVRQAPGKGLEWVANIKEDGSEKYYVDSVKGRFTISRDNAKNSLYLQMNGLRAEDTALYYCARETDILTAYYSDYYSYYGMDVWGQGTTVTVSA VL: DIQMTQSPSSLSASVRDRVTINCRASQSIRSYLNWYQQKPGKAPKLLIYAASSLQGGVPSRFSGSGSGTDFTLTISSLQPEDFATYYCQQSYSTPRTFGQGTKVEIK	no binding (tested: 100 µg/ml C4BP (C4BP-Protein S complex))
						0.33 OD	0.82 OD	no binding	0.1 OD				Antibody 32 (antibody, V domains shown, Human variable region with a rat Fc domain; also called Protein S Antibody with Rat Fc; parental rat antibody of Antibody 26) VH: EVQVVESGGGLVQPGGSLRLSCAASGFTLNSFWMSWVRQAPGKGLEWVANIKEDGSEKYYVDSVKGRFTISRDNAKNSLYLQMNGLRAEDTALYYCARETDILTAYYSDYYSYYGMDVWGQGTTVTVSA VL: DIQMTQSPSSLSASVRDRVTINCRASQSIRSYLNWYQQKPGKAPKLLIYAASSLQGGVPSRFSGSGSGTDFTLTISSLQPEDFATYYCQQSYSTPRTFGQGTKVEIK	
						0.07 OD	0.2 OD	no binding	0.06 OD				Antibody 22 (antibody, V domains shown, Human variable region with a rat Fc domain; also called Protein S Antibody with Rat Fc; parental rat antibody of Antibody 10) VH: EVQLLESGGGLVQPGGSLRLSCAASRFSFSSYAMSWVRQAPGKGLEWVSAISDSGSNTYYADSVKGLFTISRDNSKNTLYLQMNSLRAEDTAVYYCAKNYESGGYYTFFDYWGQGTLVTVST VL: EIVMTQSPATLSVFPGERATLSCRASQSVRSNLAWHQQKLGQAPRLLLYGASTRATGIPARFSGSGSGTEFTLAISSLQSEDFAVYYCQQYNSWPFTFGGGTKVGIK	

Reference: US20230174672A1 (VEGA THERAPEUTICS, published 2023)
